According to the supplement of paper PMC10567573:

B1: ATL3 (parent)
chain: FSFRYQQELEEEIKELYENFCKHN
B2: ACBD3 (parent)
chain: YVASHKIEKEEQEKKRKEEEERRR

Variants of: B1
Assay: protein stability index of a GFP-peptide fusion (GPS, HEK-293T) (PSI 1-6); higher = more stable
Settings: c terminus: a fixed tail appended
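Note: lentivirally expressed fusions sorted by FACS into six bins by GFP to DsRed ratio, PSI derived from sequencing read proportions per bin multiplied by bin number.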

Protein stability index, by site and new letter:
Q7: A 2.04 | H 2.2 | M 2.39 | G 3.13 | Y 2.91 | P 3.07 | N 2.51 | S 2.24 | E 2.64 | F 1.65 | W 1.84 | K 2.46 | R 2.3 | C 2.15 | L 1.92 | I 1.75 | V 2.17 | T 2.59 | D 2.35
Q6: D 2.35 | K 2.26 | R 2.03 | H 2.03 | T 2.04 | A 2.21 | I 1.57 | S 2 | N 2.06 | P 2.09 | C 2.38 | Y 2.24 | V 2.11 | W 1.51 | E 2.16 | F 2.1 | G 2.67 | M 2.08 | L 2.19
S2: N 2.37 | T 2.36 | F 1.75 | L 1.85 | Q 2.6 | M 1.52 | A 2.51 | V 1.65 | W 1.8 | E 2.52 | G 2.53 | R 2.62 | I 1.7 | H 2.29 | C 3.27 | Y 2.73 | K 2.58 | D 2.93 | P 2.63
E11: Y 1.6 | M 2.37 | V 1.53 | F 1.45 | S 2.58 | C 1.61 | W 1.8 | H 2.29 | I 2.11 | L 1.58 | G 2.21 | D 2.38 | A 2.76 | K 2.55 | N 2.69 | T 2.74 | R 1.98 | Q 2.18 | P 2.25
E10: K 2.2 | N 2.13 | M 1.75 | P 2.61 | T 2.37 | G 1.9 | R 1.78 | W 2.02 | D 3.31 | Q 2 | C 1.77 | F 2.06 | Y 1.75 | H 1.81 | S 2.23 | A 2.02 | V 1.47 | L 1.6 | I 1.46
L16: A 2.56 | D 3.13 | I 2.59 | C 2.42 | E 3.18 | H 3.48 | G 3.3 | F 2.62
I13: P 2.45 | K 2.79 | Y 2.83 | N 2.46 | L 1.99 | C 3.79 | A 2.31 | G 2.29 | S 2.17 | Q 2.19 | R 2.53 | F 2.66 | D 2.69 | T 2.91 | W 2.66 | M 2.65 | E 2.9 | V 2.07 | H 2.82
L9: D 3.2 | G 2.75 | C 3.22 | Y 2.24 | F 2.16 | A 2.6 | E 2.11 | H 3.64 | I 2.5 | W 2.66 | K 2.68 | N 2.81 | S 2.41 | Q 3.09 | M 2.65 | V 2.11 | P 2.63 | R 3.33 | T 3.48
F3: P 3.79 | A 2.93 | S 2.79 | L 2.7 | Y 2.01 | Q 4.39 | E 3.04 | T 3.23 | C 2.59 | R 2.83 | H 3.23 | V 2.51 | D 3.14 | N 2.85 | W 2.82 | G 3.15 | K 2.09 | M 2.96 | I 2.52
Y5: Q 2.63 | W 2.21 | C 2.44 | H 2.84 | K 2.93 | P 3.45 | F 2.5 | T 3.09 | D 3.55 | R 3.56 | I 2.77 | M 3.4 | S 3.35 | A 3.51 | V 1.93 | E 3.07 | N 3.29 | L 2.13
R4: D 3.13 | H 2.9 | S 2.1 | M 1.96 | K 2.33 | G 2.88 | F 2.45 | P 2.87 | E 2.63 | Q 2.82 | I 1.87 | V 2.36 | Y 2.11 | C 2.23 | W 1.61 | N 2.96 | A 2.05 | L 2.09 | T 2.02
F1: E 4.04 | I 2.46 | P 3.43 | C 3.11 | K 3.01 | H 3.35 | D 3.8 | Y 2.33 | G 3.93 | R 1.95 | A 2.78 | T 3.87 | Q 3.11 | L 3.32 | V 2.54 | W 1.95 | S 3.89 | M 2.03 | N 3.74
K14: R 2.72 | D 2.81 | E 2.53 | N 2.31 | Y 1.62 | V 2.17 | H 2.28 | C 2.15 | T 2.29 | L 1.49 | W 2.73 | P 2.05 | F 1.87 | S 1.66 | M 1.53 | A 2.33 | I 1.62 | Q 2.39 | G 2.37
E15: P 1.59 | D 2.59 | R 2.06 | L 1.96 | H 2.15 | G 1.56 | Y 1.8 | S 2.03 | V 2.33 | N 1.75 | I 1.71 | Q 1.91 | M 1.39 | K 2.96 | W 2.29 | C 1.67 | A 1.38 | T 1.83 | F 1.56
E12: Q 2.53 | A 1.97 | N 2.09 | I 2.07 | L 2.74 | R 1.76 | D 2.84 | V 2.08 | M 1.76 | S 2.03 | Y 2.06 | P 2.17 | H 2.29 | W 2.04 | T 1.79 | F 1.91 | G 2.1 | K 2.27 | C 1.76
E8: G 2.68 | V 1.46 | S 1.89 | L 2.1 | A 1.91 | T 1.79 | C 2.11 | H 2.27 | Y 1.79 | W 2.09 | I 1.72 | N 2.44 | M 1.97 | K 1.69 | P 2.02 | F 1.89 | Q 2.02 | R 1.65

Variants of: B2
Assay: as above
Settings: c terminus: a fixed tail appended

Protein stability index: each site, then its substitutions
R23: N 2.74 | I 2.65 | T 3.43 | K 2.74 | M 2.24 | W 2.02 | Y 2.64 | H 2.29 | L 2.7 | A 2.85 | P 2.46 | D 3.16 | Q 2.71 | G 3.03 | C 2.44 | E 3.35 | S 2.47 | F 2.82 | V 2.65
R24: F 2.85 | W 2.63 | H 3.01 | P 2.04 | N 3.67 | C 2.83 | L 2.75 | A 2.94 | M 2.65 | Y 2.42 | V 3.46 | I 2.52 | G 2.54 | T 2.27 | D 3.35 | K 2.65 | E 2.19 | S 2.7 | Q 3.12
R22: W 2.28 | V 2.89 | S 2.99 | Y 2.87 | T 3.28
